In FireProtDB (doi:10.1021/bi992257j):

B1: Rubredoxin, P24297 (parent)
chain: MAKWVCKICGYIYDEDAGDPDNGISPGTKFEELPDDWVCPICGAPKSEFEKLED

Variants of: B1
Conditions: Pyrococcus furiosus (strain ATCC 43587 / DSM 3638 / JCM 8422 / Vc1), pH 6.3, CD, Sodium phosphate 50 mM, reversible: yes, structure 1BRF, whole UniProt chain shown; for denaturant m value / denaturant midpoint (higher = more stable) / unfolding free energy: 1 °C; for Tm: Thermal

Variant | denaturant m value (GdnHCl) | denaturant midpoint (higher = more stable) (GdnHCl) | unfolding free energy (GdnHCl) | denaturant m value (Urea) | denaturant midpoint (higher = more stable) (Urea) | unfolding free energy (Urea) | Tm
MAKWVLAITGYIYDEDAGDPDNGISPGTKFEELPDDWVAPITGAPKSEFEKLED | 2 kcal/mol/M | 1.6 M | 3.2 kcal/mol | 0.81 kcal/mol/M | 4.9 M | 4 kcal/mol | 74 °C
MAKWVLKITGYIYDEDAGDPDNGISPGTKFEELPDDWVAPITGAPKSEFEKLED | 1.9 kcal/mol/M | 1.68 M | 3.2 kcal/mol | – | – | – | 82 °C
MQKWVLKITGYIYDQDAGDPDNGISPGTKFEELPDDWVAPITGAPKSEFEKLED | 3 kcal/mol/M | 0.5 M | 1.5 kcal/mol | 1.03 kcal/mol/M | 2 M | 2.1 kcal/mol | 39 °C
MQKWVLKITGYIYDTDAGDPDNGISPGTKFEELPDDWVAPITGAPKSEFEKLED | – | – | – | 1.03 kcal/mol/M | 1.6 M | 1.7 kcal/mol | 41 °C
MAKWVLKITGYIYDTDAGDPDNGISPGTKFEELPDDWVAPITGAPKSEFEKLED | – | – | – | 0.98 kcal/mol/M | 1.3 M | 1.3 kcal/mol | 38 °C
MAKWVLKITGYIYDQDAGDPDNGISPGTKFEELPDDWVAPITGAPKSEFEKLED | 2.5 kcal/mol/M | 0.63 M | 1.7 kcal/mol | 0.91 kcal/mol/M | 3 M | 2.7 kcal/mol | 57 °C
MAKWVLKITGYIYDEDAGDPDNGISPGTKFEELPDDWVAPITGAPKSEFAKLED | 2.3 kcal/mol/M | 1.35 M | 3.1 kcal/mol | 0.86 kcal/mol/M | 4.8 M | 4.1 kcal/mol | 77 °C
MAKWVLAITGYIYDEDAGDPDNGISPGTKFEELPDDWVAPITGAPKSEFAKLED | 2.2 kcal/mol/M | 1.27 M | 2.8 kcal/mol | 0.84 kcal/mol/M | 4.5 M | 3.8 kcal/mol | 74 °C
MQKWVLKITGYIYDEDAGDPDNGISPGTKFEELPDDWVAPITGAPKSEFEKLED | – | – | – | 0.93 kcal/mol/M | 3.8 M | 3.5 kcal/mol | 63 °C
